Biological target: T1, TRAIL R1-Fc fusion protein (UniProt O00220 24-239, limits assumed)
T1 construct: The construct is not described beyond its name; not shown: Fc portion
Assay: immunoprecipitation with receptor-Fc from lysates of HA-TRAIL-s transfected 293T cells, Western blot

T1 sequence (O00220 24-239 limits assumed): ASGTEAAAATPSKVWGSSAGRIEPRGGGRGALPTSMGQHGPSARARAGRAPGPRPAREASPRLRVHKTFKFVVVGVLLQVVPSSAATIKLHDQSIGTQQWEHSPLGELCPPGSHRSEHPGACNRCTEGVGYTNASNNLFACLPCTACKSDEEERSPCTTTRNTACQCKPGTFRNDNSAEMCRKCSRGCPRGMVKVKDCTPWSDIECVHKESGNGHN

B1: HA-tagged TRAIL-s (ligand)
chain: MAMMEVQGGPSLGQTCVLIVIFTVLLQSLCVAVTYVYFTNELKQMQDKYSKSGIACFLKEDDSYWDPNDEESMNSPCWQVKWQLRQLVRKTPRMKRLWAAK
notes: also called HA-TRAIL-s; not shown: HA tag of the HA-pcDNA3 vector
B1: no binding.

Source: patent US20100172914A1 (MAYO FOUNDATION FOR MEDICAL EDUCATION AND RESEARCH, published 2010)
